Data taken from patent US20100189719A1 (published 2010).

B1: G6 Fab (Fab, V domains shown)
VH: EVQLVESGGGLVQPGGSLRLSCAASGFTISDYWIHWVRQAPGKGLEWVAGITPAGGYTYYADSVKGRFTISADTSKNTAYLQMNSLRAEDTAVYYCARFVFFLPYAMDYWGQGTLVTVSS
VL: DIQMTQSPSSLSASVGDRVTITCRASQDVSTAVAWYQQKPGKAPKLLIYSASFLYSGVPSRFSGSGSGTDFTLTISSLQPEDFATYYCQQSYTTPPTFGQGTKVEIKR
notes: Purified Fab from E. coli in most assays; also called Fab G6; FabG6
B2: murine VEGF (mVEGF) (ligand, mouse, UniProt Q00731-2 27-190, looked up)
chain: APTTEGEQKSHEVIKFMDVYQRSYCRPIETLVDIFQEYPDEIEYIFKPSCVPLMRCAGCCNDEALECVPTSESNITMQIMRIKPHQSQHIGEMSFLQHSRCECRPKKDRTKPENHCEPCSERRKHLFVQDPQTCKCSCKNTDSRCKARQLELNERTCRCDKPRR
notes: also called mouse VEGF
B3: hVEGF displayed on phage (hVEGF1-109, wild type) (ligand, human, UniProt P15692 207-315, looked up)
chain: APMAEGGGQNHHEVVKFMDVYQRSYCHPIETLVDIFQEYPDEIEYIFKPSCVPLMRCGGCCNDEGLECVPTEESNITMQIMRIKPHQGQHIGEMSFLQHNKCECRPKKD
notes: Phage fusion partner not described; also called hVEGF displaying phage; hVEGF-phage
B4: second domain of Flt-1 (Flt-1D2) (receptor, UniProt P17948 129-229, looked up)
chain: SDTGRPFVEMYSEIPEIIHMTEGRELVIPCRVTSPNITVTLKKFPLDTLIPDGKRIIWDSRKGFIISNATYKEIGLLTCEATVNGHLYKTNYLTHRQTNTI
notes: domain: second domain of Flt-1 (Flt-1D2)

Tests used:
murine VEGF (mVEGF) [1] = biological target: B2; experiment: BIAcore or solution binding ELISA, Fab
human VEGF-B = biological target: T1, human VEGF-B (human, UniProt P49765-2 22-188, limits assumed); experiment: direct ELISA on coated homolog (2 ug/ml) with increasing G6 Fab
T1 sequence (looked up): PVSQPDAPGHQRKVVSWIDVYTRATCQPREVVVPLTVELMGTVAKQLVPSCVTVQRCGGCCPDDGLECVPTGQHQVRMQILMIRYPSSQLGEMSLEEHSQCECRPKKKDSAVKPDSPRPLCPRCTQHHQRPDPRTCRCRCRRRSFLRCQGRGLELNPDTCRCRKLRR

murine VEGF-D (mVEGF-D) = biological target: T2, murine VEGF-D (mVEGF-D) (mouse, UniProt P97946 98-206, limits assumed); experiment: as above
T2 sequence (looked up): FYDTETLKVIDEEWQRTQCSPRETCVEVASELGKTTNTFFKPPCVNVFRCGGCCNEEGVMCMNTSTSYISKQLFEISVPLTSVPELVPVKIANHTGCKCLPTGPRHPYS

[2] = biological target: T3, mouse placenta growth factor (PlGF-2) (mouse, UniProt P49764 19-158, limits assumed); experiment: as above
T3 construct: also called murine PlGF-2
T3 sequence (looked up): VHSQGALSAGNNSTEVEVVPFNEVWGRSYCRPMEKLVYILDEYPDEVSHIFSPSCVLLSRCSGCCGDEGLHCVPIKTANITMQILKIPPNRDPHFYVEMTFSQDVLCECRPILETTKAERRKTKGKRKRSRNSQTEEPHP

[3] = biological target: T4, human placenta growth factor (PlGF-2) (human, UniProt P49763-3 19-170, limits assumed); experiment: as above
T4 construct: also called human PlGF-2
T4 sequence (looked up): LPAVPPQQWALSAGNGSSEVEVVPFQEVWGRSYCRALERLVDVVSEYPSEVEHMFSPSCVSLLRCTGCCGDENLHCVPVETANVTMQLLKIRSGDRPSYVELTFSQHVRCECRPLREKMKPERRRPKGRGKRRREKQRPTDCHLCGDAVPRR

[4] = biological target: T5, full extracellular domain (ECD) of KDR (UniProt P35968 20-764, limits assumed); experiment: phage-blocking assay: receptor fragment at increasing concentration competes with phage clones for mVEGF-coated wells
T5 construct: extracellular domain; also called KDR ECD
T5 sequence (P35968 20-764 limits assumed): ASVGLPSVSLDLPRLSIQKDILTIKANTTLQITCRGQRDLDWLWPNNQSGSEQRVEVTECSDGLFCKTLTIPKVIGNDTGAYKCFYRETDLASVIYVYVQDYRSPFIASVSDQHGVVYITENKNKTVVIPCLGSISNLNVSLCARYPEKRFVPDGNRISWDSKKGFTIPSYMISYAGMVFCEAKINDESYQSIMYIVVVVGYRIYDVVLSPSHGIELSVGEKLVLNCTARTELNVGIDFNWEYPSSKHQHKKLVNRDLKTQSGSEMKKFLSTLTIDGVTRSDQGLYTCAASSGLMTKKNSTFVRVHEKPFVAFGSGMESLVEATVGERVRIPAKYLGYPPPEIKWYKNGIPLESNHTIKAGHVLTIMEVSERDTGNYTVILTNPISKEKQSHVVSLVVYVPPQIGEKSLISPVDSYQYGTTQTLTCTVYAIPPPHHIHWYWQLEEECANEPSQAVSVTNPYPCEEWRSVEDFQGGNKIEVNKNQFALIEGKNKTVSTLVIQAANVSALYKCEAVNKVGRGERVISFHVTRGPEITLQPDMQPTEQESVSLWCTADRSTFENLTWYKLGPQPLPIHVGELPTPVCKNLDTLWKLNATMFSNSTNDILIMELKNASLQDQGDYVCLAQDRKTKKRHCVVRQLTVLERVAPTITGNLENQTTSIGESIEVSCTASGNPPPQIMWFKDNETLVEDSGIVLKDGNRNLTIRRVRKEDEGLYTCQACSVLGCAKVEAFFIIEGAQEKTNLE

[5] = biological target: T6, Flt-1 ECD fragment (Ig domain1-5) (Flt-1D1-5) (UniProt P17948 27-553, limits assumed); experiment: phage ELISA with wild type hVEGF phage
T6 construct: domain: Flt-1 ECD fragment (Ig domain1-5); also called Flt-1 receptor
T6 sequence (P17948 27-553 limits assumed): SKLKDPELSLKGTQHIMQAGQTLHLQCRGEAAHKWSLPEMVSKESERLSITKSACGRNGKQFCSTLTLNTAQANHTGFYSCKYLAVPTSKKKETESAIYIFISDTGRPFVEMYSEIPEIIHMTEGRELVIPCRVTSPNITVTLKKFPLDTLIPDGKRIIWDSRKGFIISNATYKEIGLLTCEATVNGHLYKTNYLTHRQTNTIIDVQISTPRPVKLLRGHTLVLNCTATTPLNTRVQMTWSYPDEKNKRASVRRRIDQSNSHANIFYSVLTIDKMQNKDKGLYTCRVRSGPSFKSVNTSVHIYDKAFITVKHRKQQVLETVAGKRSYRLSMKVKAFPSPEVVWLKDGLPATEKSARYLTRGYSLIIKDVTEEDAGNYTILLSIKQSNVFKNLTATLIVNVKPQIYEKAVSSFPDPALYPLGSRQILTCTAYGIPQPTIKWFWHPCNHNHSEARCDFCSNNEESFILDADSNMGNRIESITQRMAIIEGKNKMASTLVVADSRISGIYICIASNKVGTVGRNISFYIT

murine VEGF (mVEGF) [6] = biological target: B2; experiment: phage-blocking assay: receptor fragment at increasing concentration competes with phage clones for mVEGF-coated wells

## Y0317 Fab
Murine VEGF (mVEGF) [1]
  affinity: 350 nM

## B1
Human VEGF-B
  binding result: no binding
Murine VEGF-D (mVEGF-D)
  binding result: no binding
[2]
  binding result: no binding
[3]
  binding result: no binding

## B2
[4]
  binding result: binds

## B3
[5]
  binding result: binds

## B4
Murine VEGF (mVEGF) [6]
  binding result: binds
